Results reported in article PMC11369174 (Molecular Systems Biology, 2024).
Where no end group is shown, it is not given here.

What was measured:
Settings in all cases: both partners purified
[1] = biological target: importin subunit α-8 (KPNA7) ARM domain; test: fluorescence polarisation; displacement as a1, with a FITC-labelled probe sampling the major pocket of the ARM domain (KPNA4, KPNA7)
[2] = biological target: T1, Ras-GTPase-activating protein-binding protein 2 (G3BP2) NTF2 domain (human, UniProt Q9UN86 11-133); test: fluorescence polarisation
T1 sequence (looked up): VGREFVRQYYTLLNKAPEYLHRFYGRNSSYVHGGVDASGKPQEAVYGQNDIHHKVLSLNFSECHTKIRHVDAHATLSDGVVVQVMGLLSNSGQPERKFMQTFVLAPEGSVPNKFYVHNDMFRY

[3] = biological target: T2, Ras-GTPase-activating protein-binding protein 1 (G3BP1) NTF2 domain (human, UniProt Q13283 11-133); test: fluorescence polarisation
T2 construct: also called G3BP1 NTF1
T2 sequence (Q13283 11-133): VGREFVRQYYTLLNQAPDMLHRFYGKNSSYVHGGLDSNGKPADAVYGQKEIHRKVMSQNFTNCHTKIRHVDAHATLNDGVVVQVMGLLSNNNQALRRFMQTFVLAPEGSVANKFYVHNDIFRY

[4] = biological target: T3, peripheral plasma membrane protein CASK (CASK) kinase domain (human, UniProt O14936 12-276); test: fluorescence polarisation; displacement: unlabelled peptide titrated onto a complex of FITC-labelled peptide (10 nM) and protein domain (1-2x KD); 50 mM sodium phosphate buffer pH 7.4 (CASK: plus 100 mM NaCl); KD calculated from IC50; technical triplets
T3 construct: CASK, kinase domain; limits in Dataset EV2; source: E. coli Rosetta, purified
T3 sequence (looked up): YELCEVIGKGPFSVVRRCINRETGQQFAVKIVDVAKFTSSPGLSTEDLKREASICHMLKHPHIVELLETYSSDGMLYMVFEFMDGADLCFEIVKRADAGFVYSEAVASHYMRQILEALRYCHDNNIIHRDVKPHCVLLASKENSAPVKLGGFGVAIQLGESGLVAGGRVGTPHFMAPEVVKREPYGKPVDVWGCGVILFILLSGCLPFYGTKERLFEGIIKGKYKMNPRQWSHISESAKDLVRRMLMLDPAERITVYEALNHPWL

[5] = biological target: T4, Ras-GTPase-activating protein-binding protein 1 (G3BP1) NTF2 domain (human, UniProt Q13283 11-133); test: as above
T4 construct: G3BP1, NTF2 domain; limits in Dataset EV2; source: E. coli BL21 DE (Gold), purified
T4 sequence (Q13283 11-133): as the sequence (Q13283 11-133) above

[6] = biological target: T5, CREBBP KIX (human, UniProt Q92793 587-666); test: as above
T5 construct: CREBBP, KIX domain; limits in Dataset EV2; source: E. coli BL21 DE (Gold), purified

[7] = biological target: T6, clathrin N-terminal domain (CLTC NTD) (human); test: as above
T6 chain: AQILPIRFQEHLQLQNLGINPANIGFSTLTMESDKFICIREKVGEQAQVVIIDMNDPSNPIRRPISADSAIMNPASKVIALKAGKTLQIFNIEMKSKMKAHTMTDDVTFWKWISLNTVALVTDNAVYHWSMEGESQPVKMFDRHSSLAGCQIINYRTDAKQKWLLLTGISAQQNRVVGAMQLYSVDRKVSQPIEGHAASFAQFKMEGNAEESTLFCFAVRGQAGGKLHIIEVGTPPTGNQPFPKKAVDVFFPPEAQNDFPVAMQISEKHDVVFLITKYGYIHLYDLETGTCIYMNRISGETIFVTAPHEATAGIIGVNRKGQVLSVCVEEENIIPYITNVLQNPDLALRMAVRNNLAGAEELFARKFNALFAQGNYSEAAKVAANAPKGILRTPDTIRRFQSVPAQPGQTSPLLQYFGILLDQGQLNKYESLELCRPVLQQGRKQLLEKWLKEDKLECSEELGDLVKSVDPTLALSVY

[8] = biological target: T7, Ras-GTPase-activating protein-binding protein 2 (G3BP2) NTF2 domain (human, UniProt Q9UN86 11-133); test: as above
T7 construct: G3BP2, NTF2 domain; limits in Dataset EV2; source: E. coli BL21 DE (Gold), purified
T7 sequence (looked up): T1 sequence (looked up)

[9] = biological target: T8, Clathrin N-terminal domain (CLTC NTD) (human); test: fluorescence polarisation
T8 construct: also called Clathrin NTD

[10] = biological target: T9, FITC-MYC (also: FITC label, position not given here); test: fluorescence polarisation; saturation binding: dilution series of the protein domain added to 10 nM FITC-labelled peptide; 50 mM sodium phosphate pH 7.4, 0.05% Tween (protein dialysed in 50 mM sodium phosphate with 1 mM DTT; CASK kinase domain with 100 mM NaCl in addition); quadratic fit; technical triplets
T9 chain: PAAKRVKLD

[11] = biological target: T10, FITC-NCOR2 (also: FITC label, position not given here); test: as above
T10 chain: PKRTYDMMEGRVGRAI

[12] = biological target: T11, ADP-ribosylation factor-binding protein GGA1 (GGA1) VHS domain (human, UniProt Q9UJY5 17-147); test: fluorescence polarisation; displacement: unlabelled peptide titrated onto a complex of FITC-labelled peptide (10 nM) and protein domain (1-2x KD); 50 mM sodium phosphate buffer pH 7.4 (CASK: plus 100 mM NaCl); KD calculated from IC50; technical triplets
T11 construct: GGA1, VHS domain; limits in Dataset EV2; source: E. coli BL21 DE (Gold), purified
T11 sequence (looked up): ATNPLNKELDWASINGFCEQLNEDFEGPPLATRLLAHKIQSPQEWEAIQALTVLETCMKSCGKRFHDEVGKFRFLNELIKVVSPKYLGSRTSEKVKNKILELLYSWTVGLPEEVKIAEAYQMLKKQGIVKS

[13] = biological target: T12, PPIA (human, UniProt P62937 1-165); test: fluorescence polarisation; saturation binding: dilution series of the protein domain added to 10 nM FITC-labelled peptide; 50 mM sodium phosphate pH 7.4, 0.05% Tween (protein dialysed in 50 mM sodium phosphate with 1 mM DTT; CASK kinase domain with 100 mM NaCl in addition); quadratic fit; technical triplets
T12 construct: PPIA, human; source: E. coli BL21 (DE3) Gold, purified (glutathione or Ni2+ beads)

[14] = biological target: T13, E3 ubiquitin-protein ligase NEDD4 (NEDD4) WW2 domain, GST-tagged (human); test: fluorescence polarisation
T13 construct: also called NEDD4 WW2-GST

[15] = biological target: T14, importin subunit α-3 (KPNA4) ARM domain (human); test: fluorescence polarisation; displacement as a1, with a FITC-labelled probe sampling the minor pocket of the KPNA4 ARM domain
T14 chain: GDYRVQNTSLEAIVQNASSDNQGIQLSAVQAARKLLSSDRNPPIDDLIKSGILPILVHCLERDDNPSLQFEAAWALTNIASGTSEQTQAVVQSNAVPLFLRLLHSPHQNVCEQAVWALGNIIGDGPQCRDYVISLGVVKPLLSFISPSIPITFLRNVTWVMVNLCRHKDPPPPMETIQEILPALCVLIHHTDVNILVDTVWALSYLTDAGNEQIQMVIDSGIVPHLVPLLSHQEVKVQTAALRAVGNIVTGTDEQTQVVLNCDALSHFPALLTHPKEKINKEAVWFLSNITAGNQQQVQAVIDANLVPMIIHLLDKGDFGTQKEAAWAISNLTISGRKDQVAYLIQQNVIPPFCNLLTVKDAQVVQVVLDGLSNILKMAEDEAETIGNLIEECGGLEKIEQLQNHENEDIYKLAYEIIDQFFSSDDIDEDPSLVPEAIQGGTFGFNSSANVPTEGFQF

[16] = biological target: T14, importin subunit α-3 (KPNA4) ARM domain; test: fluorescence polarisation; displacement as a1, with a FITC-labelled probe sampling the major pocket of the ARM domain (KPNA4, KPNA7)

T5 sequence (Q92793 587-666): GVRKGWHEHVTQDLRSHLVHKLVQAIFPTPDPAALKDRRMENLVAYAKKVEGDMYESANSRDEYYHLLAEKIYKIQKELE
Sequence of importin subunit α-8 (KPNA7) ARM domain (chain, as listed by the source): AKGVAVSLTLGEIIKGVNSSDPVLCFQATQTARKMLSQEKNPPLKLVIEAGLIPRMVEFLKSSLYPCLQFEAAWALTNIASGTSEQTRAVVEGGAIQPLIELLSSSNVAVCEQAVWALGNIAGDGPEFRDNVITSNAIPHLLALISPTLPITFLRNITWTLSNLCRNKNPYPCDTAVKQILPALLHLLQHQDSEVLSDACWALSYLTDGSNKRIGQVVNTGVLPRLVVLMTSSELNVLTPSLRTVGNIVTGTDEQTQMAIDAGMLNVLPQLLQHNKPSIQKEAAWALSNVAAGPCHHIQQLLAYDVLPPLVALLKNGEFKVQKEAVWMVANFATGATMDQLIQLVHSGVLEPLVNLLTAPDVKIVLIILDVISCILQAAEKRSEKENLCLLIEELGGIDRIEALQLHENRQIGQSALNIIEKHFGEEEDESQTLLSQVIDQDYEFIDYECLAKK
T13 sequence (P46934 whole entry, the tested form may be a part): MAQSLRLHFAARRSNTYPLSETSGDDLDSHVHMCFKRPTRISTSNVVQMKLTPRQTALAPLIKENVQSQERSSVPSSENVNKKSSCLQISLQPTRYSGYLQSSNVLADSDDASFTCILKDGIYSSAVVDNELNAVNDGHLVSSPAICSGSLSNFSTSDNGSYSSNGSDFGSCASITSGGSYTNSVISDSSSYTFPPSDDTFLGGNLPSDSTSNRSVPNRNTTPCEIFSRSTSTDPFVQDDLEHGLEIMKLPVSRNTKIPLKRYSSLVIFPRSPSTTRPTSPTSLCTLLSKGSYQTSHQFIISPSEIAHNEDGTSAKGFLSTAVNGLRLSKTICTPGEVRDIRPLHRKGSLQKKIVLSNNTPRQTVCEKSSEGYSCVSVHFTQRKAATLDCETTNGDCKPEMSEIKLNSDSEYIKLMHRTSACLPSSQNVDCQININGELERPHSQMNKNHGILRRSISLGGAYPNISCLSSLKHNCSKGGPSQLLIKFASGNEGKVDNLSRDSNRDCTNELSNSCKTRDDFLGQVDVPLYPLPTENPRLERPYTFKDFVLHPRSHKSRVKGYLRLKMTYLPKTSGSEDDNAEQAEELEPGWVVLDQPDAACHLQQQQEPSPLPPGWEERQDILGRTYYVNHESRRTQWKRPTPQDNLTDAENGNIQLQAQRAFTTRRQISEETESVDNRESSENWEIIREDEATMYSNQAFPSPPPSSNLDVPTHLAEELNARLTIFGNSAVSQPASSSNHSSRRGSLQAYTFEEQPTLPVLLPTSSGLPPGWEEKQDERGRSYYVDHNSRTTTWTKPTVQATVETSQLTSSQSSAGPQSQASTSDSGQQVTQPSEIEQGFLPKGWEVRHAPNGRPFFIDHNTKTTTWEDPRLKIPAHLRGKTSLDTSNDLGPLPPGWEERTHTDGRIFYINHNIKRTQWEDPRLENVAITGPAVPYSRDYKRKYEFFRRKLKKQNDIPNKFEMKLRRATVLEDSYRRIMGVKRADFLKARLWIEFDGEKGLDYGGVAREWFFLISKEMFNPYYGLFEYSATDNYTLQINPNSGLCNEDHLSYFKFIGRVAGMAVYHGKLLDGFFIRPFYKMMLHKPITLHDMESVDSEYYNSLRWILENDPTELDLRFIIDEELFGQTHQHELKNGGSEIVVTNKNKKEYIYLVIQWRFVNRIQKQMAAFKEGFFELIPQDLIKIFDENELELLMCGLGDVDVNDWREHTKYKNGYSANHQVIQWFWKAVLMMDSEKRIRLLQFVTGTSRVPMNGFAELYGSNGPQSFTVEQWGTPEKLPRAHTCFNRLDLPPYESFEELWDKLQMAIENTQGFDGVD
T12 sequence (P62937 whole entry, the tested form may be a part): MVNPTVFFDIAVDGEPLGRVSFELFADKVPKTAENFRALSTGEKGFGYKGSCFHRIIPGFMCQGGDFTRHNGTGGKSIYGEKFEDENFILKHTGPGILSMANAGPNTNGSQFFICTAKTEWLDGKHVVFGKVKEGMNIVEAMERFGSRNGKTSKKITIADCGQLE

B1: CDC45_(152-166) wild-type peptide (peptide)
peptide: EPSEKRTRLEEEIVEY
notes: also called CDC45 R157C wild-type; source: synthetic peptide, bought: Genecust
KD, major pocket [1]: 6.6 µM

APRITFGGPSDS (also: FITC label, position not given here) [FITC-N_SARS-CoV-2]
Kd [2]: 5.4 µM
Kd [3]: 2.51 µM

B2: CDC45_(152-166) R157C peptide (peptide)
peptide: EPSEKCTRLEEEIVEY
notes: also called CDC45 R157C mutant; source: synthetic peptide, bought: Genecust
KD, major pocket [1]: 380 µM

B3: FANCA 1-16 S4L peptide (peptide)
peptide: MSDLWVPNSASGQDPG
notes: FANCA residues 1-16; also called FANCA S4L mutant; source: synthetic peptide, bought: Genecust
Kd [4]: 15 µM

B4: NSD1 1793-1808 L1797P peptide (peptide)
peptide: EFPVPFFGSNDYLWTH
notes: also called NSD1 L1797P mutant; source: synthetic peptide, bought: Genecust
Kd [5]: 49 µM

B5: KMT2A 2847-2861 wild-type peptide (peptide)
peptide: SDIMDFVLKNTPSMQY
notes: also called KMT2A L2854Q wild-type; source: synthetic peptide, bought: Genecust
Kd [6]: 380 µM

B6: KMT2A 2847-2861 L2854Q peptide (peptide)
peptide: SDIMDFVQKNTPSMQY
notes: also called KMT2A L2854Q mutant; source: synthetic peptide, bought: Genecust
Kd [6]: 340 µM

B7: BCL11A_(44-56) wild-type peptide (peptide)
peptide: DLLTCGQAQMNFPY
notes: BCL11A residues 44-56; source: synthetic peptide, bought: Genecust
Kd [7]: 1100 µM

B8: BCL11A_(44-56) C48F peptide (peptide)
peptide: DLLTFGQAQMNFPY
notes: BCL11A residues 44-56; also called C47F BCL11A; source: synthetic peptide, bought: Genecust
Kd [7]: 361 µM
Kd [8]: 215 µM

SVDLITFDSV (also: FITC label, position not given here) [FITC-NSP3]
Kd [9]: 21 µM

B9: MITF 258-271 wild-type peptide (peptide)
peptide: SGNLIDLYGNQGLPY
notes: also called MITF Y265C wild-type; source: synthetic peptide, bought: Genecust
Kd [7]: 191 µM

B10: Importin subunit alpha-8 (KPNA7) ARM domain (domain or fragment)
chain: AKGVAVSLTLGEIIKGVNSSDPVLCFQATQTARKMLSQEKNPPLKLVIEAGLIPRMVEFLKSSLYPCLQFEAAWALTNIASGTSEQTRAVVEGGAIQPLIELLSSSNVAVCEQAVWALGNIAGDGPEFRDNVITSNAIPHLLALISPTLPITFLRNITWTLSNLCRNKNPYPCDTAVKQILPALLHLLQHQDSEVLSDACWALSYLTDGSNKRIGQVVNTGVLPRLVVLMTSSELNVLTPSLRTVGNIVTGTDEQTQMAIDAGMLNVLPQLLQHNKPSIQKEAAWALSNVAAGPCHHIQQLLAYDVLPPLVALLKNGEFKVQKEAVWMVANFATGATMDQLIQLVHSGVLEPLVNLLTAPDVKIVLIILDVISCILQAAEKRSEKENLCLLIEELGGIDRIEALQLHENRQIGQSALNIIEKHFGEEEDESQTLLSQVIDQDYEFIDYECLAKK
Kd [10]: 7.5 µM
Kd [11]: 57 µM

B11: MAPT 717-731 R723W peptide (peptide)
peptide: YSGDTSPWHLSNVSST
notes: microtubule-associated protein tau residues 717-731; also called MAPT R723W mutant; source: synthetic peptide, bought: Genecust
Kd [4]: 39 µM

B12: myosin-9 peptide (MYH9_(1419-1433)) wild-type (peptide)
peptide: YQQELDDLLVDLDHQR
notes: MYH9 residues 1419-1433; also called MYH9 D1424H wild-type; source: synthetic peptide, bought: Genecust
Kd [12]: 101 µM

B13: MYH9_(1419-1433) D1424H peptide (peptide)
peptide: YQQELDHLLVDLDHQR
notes: MYH9 residues 1419-1433; also called MYH9 D1424H mutant; source: synthetic peptide, bought: Genecust
Kd [12]: 306 µM

B14: CTNNB1_(27-42) S33F peptide (peptide)
peptide: QQSYLDFGIHSGATTT
notes: β-catenin residues 27-42; also called CTNNB1 S33F mutant; source: synthetic peptide, bought: Genecust
Kd [5]: 57 µM

EQVEYGPLQAQM (also: FITC label, position not given here) [FITC-SPHK2]
Kd [13]: 42 µM

B15: MITF 258-271 Y265C peptide (peptide)
peptide: SGNLIDLCGNQGLPY
notes: also called MITF Y265C mutant; source: synthetic peptide, bought: Genecust
Kd [7]: 206 µM

B16: Importin subunit alpha-3 (KPNA4) ARM domain (domain or fragment)
chain: T14 chain
Kd [10]: 0.008 µM
Kd [11]: 0.03 µM

TDSPPPYSAG (also: FITC label, position not given here) [FITC-UL56(HHV-2)]
Kd [14]: 4.1 µM

B17: ABRAXAS1_(349-364) R361Q peptide (peptide)
peptide: LDLDDRWQFKRSQLLD
notes: also called ABRAXAS1 R361Q mutant; source: synthetic peptide, bought: Genecust
KD, minor pocket [15]: 297 µM
KD, major pocket [16]: 75 µM
